Laboratory results: patent US20210324099A1 (Chugai, published 2021)

T1: hFcgRIIaH (human, UniProt P12318 34-217)
T1 construct: extracellular domain; also called human FcγRIIa type H (H131)
T1 sequence (looked up): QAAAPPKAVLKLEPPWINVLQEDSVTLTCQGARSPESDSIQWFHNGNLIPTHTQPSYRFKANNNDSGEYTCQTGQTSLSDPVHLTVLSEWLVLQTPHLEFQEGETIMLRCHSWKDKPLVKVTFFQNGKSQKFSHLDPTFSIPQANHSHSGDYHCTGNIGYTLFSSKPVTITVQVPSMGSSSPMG

T2: hFcgRIIb (human, UniProt P31994 43-217)
T2 construct: extracellular domain; also called human FcγRIIb
T2 sequence (looked up): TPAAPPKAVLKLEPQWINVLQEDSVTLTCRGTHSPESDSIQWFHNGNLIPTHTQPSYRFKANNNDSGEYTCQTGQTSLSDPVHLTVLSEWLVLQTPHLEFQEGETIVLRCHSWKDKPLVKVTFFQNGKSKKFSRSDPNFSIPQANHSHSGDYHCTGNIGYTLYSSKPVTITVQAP

T3: hFcgRIIaR (human, UniProt P12318 34-217)
T3 construct: extracellular domain; also called human FcγRIIa type R (R131)
T3 sequence (looked up): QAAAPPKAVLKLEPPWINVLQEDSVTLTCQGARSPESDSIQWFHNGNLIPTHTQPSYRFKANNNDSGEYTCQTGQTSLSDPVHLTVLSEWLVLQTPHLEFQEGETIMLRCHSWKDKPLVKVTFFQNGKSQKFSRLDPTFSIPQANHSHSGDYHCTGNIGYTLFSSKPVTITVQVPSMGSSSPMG


Key:
hFcgRIIaH [1] = target: T1, hFcgRIIaH; assay: SPR 25C
Protocol: (§1) Biacore T200 (GE Healthcare) was used to evaluate the binding activity to the respective human Fcγ receptor (hereafter referred to as FcγR). Measurement was performed at 25° C. using 50 mM phosphate, 150 mM NaCl, 0.05 w/v %-P20, pH 7.4 as buffer. About 1000 RU of antibody was captured using a sensor chip immobilized with CaptureSelect™ Human Fab-lambda Kinetics Biotin Conjugate (Thermo Fisher Scientific) as a molecule for ligand capturing. Human FcγR was diluted to 8 nM for FcγRIa and 1000 nM for other FcγR in the measurement buffer, and it was interacted to the captured antibody. The binding activity of each antibody to FcγR was assessed by calculating the binding amount of FcγR (RU) per unit amount of antibody using Biacore T200 Evaluation Software 2.0.

hFcgRIIIaV [2] = target: T4, hFcgRIIIaV (human, UniProt P08637 17-208); assay: SPR 25C
T4 construct: extracellular domain; also called human FcγRIIIa allotype V158
Protocol: as §1

hFcgRIa [3] = target: T5, hFcgRIa (human, UniProt P12314 16-292); assay: SPR 25C
T5 construct: extracellular domain; also called human FcγRIa; FcγRI
Protocol: as §1

hFcgRIIb [4] = target: T2, hFcgRIIb; assay: SPR 25C
Protocol: as §1

hFcgRIIaR [5] = target: T3, hFcgRIIaR; assay: SPR 25C
Protocol: as §1

hFcgRIIIaF [6] = target: T6, hFcgRIIIaF (human, UniProt P08637 17-208); assay: SPR 25C
T6 construct: extracellular domain; also called human FcγRIIIa allotype F158
Protocol: as §1

hFcgRIIaH [7] = target: T1, hFcgRIIaH; assay: SPR 25C; relative to A375-G1T3/B167-Lamlib;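 note: SPR with antibody captured on an anti-human Fab-lambda chip, human FcγR analyte at 8 nM for FcγRIa or 1000 nM for the others, pH 7.4, FcγR RU per captured antibody unit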
Protocol: as §1

hFcgRIIIaV [8] = target: T4, hFcgRIIIaV; assay: SPR 25C; relative to A375-G1T3/B167-Lamlib;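 note: SPR with antibody captured on an anti-human Fab-lambda chip, human FcγR analyte at 8 nM for FcγRIa or 1000 nM for the others, pH 7.4, FcγR RU per captured antibody unit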
Protocol: as §1

hFcgRIa [9] = target: T5, hFcgRIa; assay: SPR 25C; relative to A375-G1T3/B167-Lamlib;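 note: SPR with antibody captured on an anti-human Fab-lambda chip, human FcγR analyte at 8 nM for FcγRIa or 1000 nM for the others, pH 7.4, FcγR RU per captured antibody unit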
Protocol: as §1

hFcgRIIb [10] = target: T2, hFcgRIIb; assay: SPR 25C; relative to A375-G1T3/B167-Lamlib;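 note: SPR with antibody captured on an anti-human Fab-lambda chip, human FcγR analyte at 8 nM for FcγRIa or 1000 nM for the others, pH 7.4, FcγR RU per captured antibody unit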
Protocol: as §1

hFcgRIIaR [11] = target: T3, hFcgRIIaR; assay: SPR 25C; relative to A375-G1T3/B167-Lamlib
Protocol: as §1

hFcgRIIIaF [12] = target: T6, hFcgRIIIaF; assay: SPR 25C; relative to A375-G1T3/B167-Lamlib
Protocol: as §1

human FcRn = human FcRn (human, UniProt P55899 24-290; P61769 21-119, limits assumed); assay: SPR 25C pH 6.0, steady state;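 note: antibody captured on chip via anti-human Fab-lambda ligand, human FcRn injected as analyte in 50 mM phosphate buffer with 150 mM NaCl and P20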
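Throughout, for binding per 1RU of antibody: biacore SPR with antibody captured on an anti-human Fab lambda chip, human FcγR injected at 1000 nM (FcγRIa at 8 nM) in pH 7.4 phosphate buffer.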
Protocol: Biacore T200 (GE Healthcare) was used to assess the binding activity to human FcRn. Measurement was performed at 25° C. using 50 mM phosphate, 150 mM NaCl, 0.05 w/v %-P20, pH 6.0 as buffer. […] About 400 RU of antibody was captured using a sensor chip immobilized with CaptureSelect™ Human Fab-lambda Kinetics Biotin Conjugate (Thermo Fisher Scientific) as a molecule for ligand capturing, followed by the binding of human FcRn diluted in measuring buffer. The activity of the respective antibodies to bind FcRn was assessed by calculating KD (mol/L) by the steady-state model using Biacore T200 Evaluation Software 2.0.

T6 sequence (P08637 17-208): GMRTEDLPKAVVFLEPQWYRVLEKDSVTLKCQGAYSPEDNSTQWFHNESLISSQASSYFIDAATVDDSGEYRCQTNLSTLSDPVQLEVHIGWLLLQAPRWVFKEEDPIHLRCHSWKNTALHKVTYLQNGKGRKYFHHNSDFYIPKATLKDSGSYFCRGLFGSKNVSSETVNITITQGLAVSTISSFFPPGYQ
T5 sequence (P12314 16-292): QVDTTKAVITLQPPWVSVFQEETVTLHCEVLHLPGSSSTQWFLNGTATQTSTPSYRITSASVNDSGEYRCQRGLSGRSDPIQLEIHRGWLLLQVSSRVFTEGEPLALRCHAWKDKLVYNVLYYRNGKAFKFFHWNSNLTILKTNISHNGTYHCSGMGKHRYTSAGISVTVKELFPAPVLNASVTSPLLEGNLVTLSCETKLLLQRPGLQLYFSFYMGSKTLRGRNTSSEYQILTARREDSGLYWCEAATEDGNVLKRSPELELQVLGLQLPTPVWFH
T4 sequence (P08637 17-208 F176V): as the sequence (P08637 17-208) above, with F160V counted along it

Binder	binding per 1RU of antibody (hFcgRIIaH [1]) [RU]	binding per 1RU of antibody (hFcgRIIIaV [2]) [RU]	binding per 1RU of antibody (hFcgRIa [3]) [RU]	binding per 1RU of antibody (hFcgRIIb [4]) [RU]	binding per 1RU of antibody (hFcgRIIaR [5]) [RU]	binding per 1RU of antibody (hFcgRIIIaF [6]) [RU]	relative binding amount (hFcgRIIaH [7])	relative binding amount (hFcgRIIIaV [8])	relative binding amount (hFcgRIa [9])	relative binding amount (hFcgRIIb [10])	relative binding amount (hFcgRIIaR [11])	relative binding amount (hFcgRIIIaF [12])	Kd (human FcRn) [nM]
A375-SCF039a/B167-Lamlib (antibody, human IgG1, lambda) heavy: EVQLVESGGGLVKPGGSLRLSCAASGFTFSTFTMNWVRQAPGKGLEWVSSISSKSTYIEYADSFKVRFTISRDNAKNSLYLQMNSLRAEDTAVYYCARYGAKNFLNWVFDYWGQGTLVTVSSASTKGPSVFPLAPSSKSTSGGTAALGCLVKDYFPEPVTVSWNSGALTSGVHTFPAVLQSSGLYSLSSVVTVPSSSLGTQTYICNVNHKPSNTKVDKRVEPKSCDKTHTCPPCPAPELWNGPSVFLFPPKPKDTLMISRTPEVTCVVVDVSDEDPEVKFNWYVDGVEVHNAKTKPREELYNSTYRVVSVLTVLHQDWLNGKEYKCKVSNTALPKPIEKTISKAKGQRREPQVYTLPPSREEMTKNQVSLTCLVKGFYPSDIAVEWESNGQPENNYKTTPPVLDSDGSFFLYSKLTVDKSRWQQGNVFSCSVMHEALHNHYTQKSLSLSP light: QSALTQPPSASGSPGQTVTISCTGTRYDVGYYEYVSWYQQHPGKAPKLMIYETSKRLSGVPDRFSGSKSGNTASLTVSGLQAEDEADYYCSSYRYEHQVSFGGGTKLTVLGQPKAAPSVTLFPPSSEELQANKATLVCLISDFYPGAVTVAWKADSSPVKAGVETTTPSKQSNNKYAASSYLSLTPEQWKSHRSYSCQVTHEGSTVEKTVAPTECS	0.0542	0.0013	0.0018	0.054	0.0554	0.0012	0.96	0.02	0.02	4.93	1.2	0.06	1110
A375-SCF039/B167-Lamlib (antibody, human IgG1, lambda) heavy: EVQLVESGGGLVKPGGSLRLSCAASGFTFSTFTMNWVRQAPGKGLEWVSSISSKSTYIEYADSFKVRFTISRDNAKNSLYLQMNSLRAEDTAVYYCARYGAKNFLNWVFDYWGQGTLVTVSSASTKGPSVFPLAPSSKSTSGGTAALGCLVKDYFPEPVTVSWNSGALTSGVHTFPAVLQSSGLYSLSSVVTVPSSSLGTQTYICNVNHKPSNTKVDKKVEPKSCDKTHTCPPCPAPELWNGPSVFLFPPKPKDTLMISRTPEVTCVVVDVSDEDPEVKFNWYVDGVEVHNAKTKPREELYNSTYRVVSVLTVLHQDWLNGKEYKCKVSNTALPKPIEKTISKAKGQRREPQVYTLPPSREEMTKNQVSLTCLVKGFYPSDIAVEWESNGQPENNYKTTPPVLDSDGSFFLYSKLTVDKSRWQQGNVFSCSVMHEALHNHYTQKSLSLSP light: QSALTQPPSASGSPGQTVTISCTGTRYDVGYYEYVSWYQQHPGKAPKLMIYETSKRLSGVPDRFSGSKSGNTASLTVSGLQAEDEADYYCSSYRYEHQVSFGGGTKLTVLGQPKAAPSVTLFPPSSEELQANKATLVCLISDFYPGAVTVAWKADSSPVKAGVETTTPSKQSNNKYAASSYLSLTPEQWKSHRSYSCQVTHEGSTVEKTVAPTECS	0.0535	0.0013	0.0018	0.0531	0.0542	0.0008	0.94	0.02	0.02	4.85	1.17	0.04	1090
A375-SCF032/B167-Lamlib (antibody, human IgG1, lambda) heavy: EVQLVESGGGLVKPGGSLRLSCAASGFTFSTFTMNWVRQAPGKGLEWVSSISSKSTYIEYADSFKVRFTISRDNAKNSLYLQMNSLRAEDTAVYYCARYGAKNFLNWVFDYWGQGTLVTVSSASTKGPSVFPLAPSSKSTSGGTAALGCLVKDYFPEPVTVSWNSGALTSGVHTFPAVLQSSGLYSLSSVVTVPSSSLGTQTYICNVNHKPSNTKVDKKVEPKSCDKTHTCPPCPAPEYLGGDSVFLFPPKPKDVLMISRTPEVTCVVIDVSHEDPEVKFNWYVDGVEVHNAKTKPREEQYNSTYRVVSVLPVLHRDWLNGKEYKCKVSNKALPKPIEKTISKAKGQRREPQVYTLPPSREEMTKNQVSLTCLVKGFYPSDIAVEWESNGQPENNYKTTPPVLDSDGSFFLYSKLTVDKSRWQQGNVFSCSVMHEALHNHYTQKSLSLSP light: QSALTQPPSASGSPGQTVTISCTGTRYDVGYYEYVSWYQQHPGKAPKLMIYETSKRLSGVPDRFSGSKSGNTASLTVSGLQAEDEADYYCSSYRYEHQVSFGGGTKLTVLGQPKAAPSVTLFPPSSEELQANKATLVCLISDFYPGAVTVAWKADSSPVKAGVETTTPSKQSNNKYAASSYLSLTPEQWKSHRSYSCQVTHEGSTVEKTVAPTECS	0.003	-0.0007	0.0049	0.0782	-0.0004	-0.0007	0.05	-0.01	0.06	7.14	-0.01	-0.03	966

The remaining lines, values ahead:

binding per 1RU of antibody (hFcgRIIaH [1]) [RU]	binding per 1RU of antibody (hFcgRIIIaV [2]) [RU]	binding per 1RU of antibody (hFcgRIa [3]) [RU]	binding per 1RU of antibody (hFcgRIIb [4]) [RU]	binding per 1RU of antibody (hFcgRIIaR [5]) [RU]	binding per 1RU of antibody (hFcgRIIIaF [6]) [RU]	relative binding amount (hFcgRIIaH [7])	relative binding amount (hFcgRIIIaV [8])	relative binding amount (hFcgRIa [9])	relative binding amount (hFcgRIIb [10])	relative binding amount (hFcgRIIaR [11])	relative binding amount (hFcgRIIIaF [12])	Kd (human FcRn) [nM]	Binder
0.0533	0.002	0.002	0.0532	0.0532	0.0017	0.94	0.03	0.02	4.85	1.15	0.08	863	A375-SCF030/B167-Lamlib (antibody, human IgG1, lambda) heavy: EVQLVESGGGLVKPGGSLRLSCAASGFTFSTFTMNWVRQAPGKGLEWVSSISSKSTYIEYADSFKVRFTISRDNAKNSLYLQMNSLRAEDTAVYYCARYGAKNFLNWVFDYWGQGTLVTVSSASTKGPSVFPLAPSSKSTSGGTAALGCLVKDYFPEPVTVSWNSGALTSGVHTFPAVLQSSGLYSLSSVVTVPSSSLGTQTYICNVNHKPSNTKVDKKVEPKSCDKTHTCPPCPAPELWNGPSVFLFPPKPKDTLMISRTPEVTCVVVDVSDEDPEVKFNWYVDGVEVHNAKTKPREELYNSTYRVVSVLTVLHRDWLNGKEYKCKVSNTALPKPIEKTISKAKGQRREPQVYTLPPSREEMTKNQVSLTCLVKGFYPSDIAVEWESNGQPENNYKTTPPVLDSDGSFFLYSKLTVDKSRWQQGNVFSCSVMHEALHNHYTQKSLSLSP light: QSALTQPPSASGSPGQTVTISCTGTRYDVGYYEYVSWYQQHPGKAPKLMIYETSKRLSGVPDRFSGSKSGNTASLTVSGLQAEDEADYYCSSYRYEHQVSFGGGTKLTVLGQPKAAPSVTLFPPSSEELQANKATLVCLISDFYPGAVTVAWKADSSPVKAGVETTTPSKQSNNKYAASSYLSLTPEQWKSHRSYSCQVTHEGSTVEKTVAPTECS
0.0103	0.0002	0.0033	0.0979	0.0255	0	0.18	0	0.04	8.94	0.55	0	874	A375-SCF033/B167-Lamlib (antibody, human IgG1, lambda) heavy: EVQLVESGGGLVKPGGSLRLSCAASGFTFSTFTMNWVRQAPGKGLEWVSSISSKSTYIEYADSFKVRFTISRDNAKNSLYLQMNSLRAEDTAVYYCARYGAKNFLNWVFDYWGQGTLVTVSSASTKGPSVFPLAPSSKSTSGGTAALGCLVKDYFPEPVTVSWNSGALTSGVHTFPAVLQSSGLYSLSSVVTVPSSSLGTQTYICNVNHKPSNTKVDKKVEPKSCDKTHTCPPCPAPEYLGDDSVFLFPPKPKDVLMISRTPEVTCVVVDVSHEDPEVKFNWYVDGVEVHNAKTKPREEQYNSTYRVVSVLPVLHRDWLNGKEYKCKVSNKALPKPIEKTISKAKGQRREPQVYTLPPSREEMTKNQVSLTCLVKGFYPSDIAVEWESNGQPENNYKTTPPVLDSDGSFFLYSKLTVDKSRWQQGNVFSCSVMHEALHNHYTQKSLSLSP light: QSALTQPPSASGSPGQTVTISCTGTRYDVGYYEYVSWYQQHPGKAPKLMIYETSKRLSGVPDRFSGSKSGNTASLTVSGLQAEDEADYYCSSYRYEHQVSFGGGTKLTVLGQPKAAPSVTLFPPSSEELQANKATLVCLISDFYPGAVTVAWKADSSPVKAGVETTTPSKQSNNKYAASSYLSLTPEQWKSHRSYSCQVTHEGSTVEKTVAPTECS
